Holding throughout (experiment): pull-down
One data set addresses T1, MBP-TraR R206Q, P33905.
T1 chain: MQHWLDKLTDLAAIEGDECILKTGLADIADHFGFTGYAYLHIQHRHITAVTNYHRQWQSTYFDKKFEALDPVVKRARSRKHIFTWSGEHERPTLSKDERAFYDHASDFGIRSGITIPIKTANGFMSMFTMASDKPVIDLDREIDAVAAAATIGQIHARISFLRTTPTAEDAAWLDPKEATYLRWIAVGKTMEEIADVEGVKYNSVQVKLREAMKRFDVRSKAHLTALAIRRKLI

For a further data set, the target named is T2, MBP-TraR A157V, P33905.
T2 chain: T1 chain with A157V, Q206R

Another data set has as its target T3, MBP-TraR I155F, P33905.
T3 chain: T1 chain with I155F, Q206R

The target in the next data set is T4, MBP-TraR G153A, P33905.
T4 chain: T1 chain with G153A, Q206R

The target in a further data set is T5, MBP-TraR A222D, P33905.
T5 chain: T1 chain with Q206R, A222D

Another data set concerns the target T6, MBP-TraR T225S, P33905.
T6 chain: T1 chain with Q206R, T225S

The target in a further data set is T7, MBP-TraR S160F, P33905.
T7 chain: T1 chain with S160F, Q206R

The target of the next data set is T8, MBP-TraR A157E, P33905.
T8 chain: T1 chain with A157E, Q206R

Numbering of substitutions follows the chain as printed.

B1: native TraR (wild type) (protein)
chain: T1 chain with Q206R
For the protein B1, the heterodimer formation (% of wild type) (% of wild type) with MBP-TraR R206Q, P33905 came out at 71; in the data set with MBP-TraR A157V, P33905, 50; with MBP-TraR I155F, P33905, 50; in the data set with MBP-TraR G153A, P33905, 61; with MBP-TraR A222D, P33905, 29; in the data set with MBP-TraR T225S, P33905 it was 43. The heterodimer formation (% of wild type) (% of wild type) in the data set with MBP-TraR S160F, P33905 came to 69; with MBP-TraR A157E, P33905, 48.

The values above are taken from publication PMC2739136.
